Source: patent US20100292442A1

Columns and labels:
[1] = target: huIL-17RA-FLAG-polyHis (human) (UniProt Q96F46); assay: Luminex binning; bead mAb J holds IL-17RA
[2] = target: huIL-17RA-FLAG-polyHis (human) (UniProt Q96F46); assay: Luminex binning; bead huIgG control (f15) + IL-17RA; self pair (boxed) [D00007 Fig. 8B]

In the case of huIgG (antibody), the normalized MFI [1] is reported as 42 and the normalized MFI [2] is reported as 65.
